Data from EP4471063A1 (Medilink Therapeutics (Suzhou) Co., Ltd., dated 2023).

T1: monkey Her3-his (monkey)
T1 chain: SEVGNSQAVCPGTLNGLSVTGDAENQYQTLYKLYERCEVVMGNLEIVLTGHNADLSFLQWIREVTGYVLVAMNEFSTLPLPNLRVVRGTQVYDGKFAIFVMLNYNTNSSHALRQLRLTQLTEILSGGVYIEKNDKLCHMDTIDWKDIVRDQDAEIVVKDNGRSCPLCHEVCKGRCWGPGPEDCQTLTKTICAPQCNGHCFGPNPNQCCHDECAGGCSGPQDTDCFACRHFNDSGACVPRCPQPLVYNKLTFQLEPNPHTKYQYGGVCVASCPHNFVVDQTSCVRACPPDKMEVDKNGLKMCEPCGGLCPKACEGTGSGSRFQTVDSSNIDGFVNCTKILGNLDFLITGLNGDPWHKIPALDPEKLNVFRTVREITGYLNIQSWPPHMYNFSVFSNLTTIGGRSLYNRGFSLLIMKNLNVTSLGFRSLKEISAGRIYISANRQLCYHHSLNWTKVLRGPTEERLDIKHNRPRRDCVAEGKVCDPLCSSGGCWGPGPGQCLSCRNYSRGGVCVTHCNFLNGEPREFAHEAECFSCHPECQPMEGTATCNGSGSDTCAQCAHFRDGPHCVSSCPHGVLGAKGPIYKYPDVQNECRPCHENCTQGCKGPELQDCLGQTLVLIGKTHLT

T2: human Her4-His (human, UniProt Q15303 26-649, limits assumed)
T2 construct: Bought protein
T2 sequence (looked up): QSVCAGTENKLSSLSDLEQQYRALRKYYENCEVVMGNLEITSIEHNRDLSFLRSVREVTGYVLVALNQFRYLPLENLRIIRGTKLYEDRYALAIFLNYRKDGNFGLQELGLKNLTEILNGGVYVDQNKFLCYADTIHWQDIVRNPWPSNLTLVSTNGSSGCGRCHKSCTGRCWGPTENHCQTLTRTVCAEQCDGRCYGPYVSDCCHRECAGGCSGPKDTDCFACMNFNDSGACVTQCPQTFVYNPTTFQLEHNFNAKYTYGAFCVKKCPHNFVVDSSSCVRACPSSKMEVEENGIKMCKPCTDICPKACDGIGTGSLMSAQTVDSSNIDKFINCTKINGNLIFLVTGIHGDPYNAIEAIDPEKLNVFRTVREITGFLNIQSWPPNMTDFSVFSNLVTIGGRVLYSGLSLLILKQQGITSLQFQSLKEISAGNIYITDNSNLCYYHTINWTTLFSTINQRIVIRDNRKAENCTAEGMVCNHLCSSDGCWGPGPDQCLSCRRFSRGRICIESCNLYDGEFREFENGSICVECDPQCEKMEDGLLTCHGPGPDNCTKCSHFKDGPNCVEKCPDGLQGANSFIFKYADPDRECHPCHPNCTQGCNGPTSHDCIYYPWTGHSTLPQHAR

T3: rat Her3-his (rat)
T3 chain: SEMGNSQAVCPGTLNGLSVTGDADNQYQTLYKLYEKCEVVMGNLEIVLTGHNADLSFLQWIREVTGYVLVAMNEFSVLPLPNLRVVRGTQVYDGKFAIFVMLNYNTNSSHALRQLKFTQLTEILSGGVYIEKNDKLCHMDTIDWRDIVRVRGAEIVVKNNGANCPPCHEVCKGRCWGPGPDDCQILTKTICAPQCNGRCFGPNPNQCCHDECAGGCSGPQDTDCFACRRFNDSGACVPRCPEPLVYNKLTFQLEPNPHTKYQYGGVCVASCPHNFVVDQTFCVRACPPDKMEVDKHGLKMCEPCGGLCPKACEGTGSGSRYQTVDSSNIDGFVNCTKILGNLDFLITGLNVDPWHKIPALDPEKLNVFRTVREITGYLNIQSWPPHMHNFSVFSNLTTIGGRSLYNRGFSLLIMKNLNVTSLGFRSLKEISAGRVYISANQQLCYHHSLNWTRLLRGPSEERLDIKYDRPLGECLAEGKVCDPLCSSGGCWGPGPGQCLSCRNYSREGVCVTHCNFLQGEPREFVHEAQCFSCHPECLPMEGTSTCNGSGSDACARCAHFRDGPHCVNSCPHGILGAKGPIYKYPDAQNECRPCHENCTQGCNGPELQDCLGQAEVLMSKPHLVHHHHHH


Assays:
human Her3-his [1] = target: T4, human Her3-his (human, UniProt P21860 20-643); experiment: ELISA, coated human Her3-his, anti-human Fc-HRP
T4 construct: Construct encodes positions 1-643 with its own leader; Expressed in HEK293F, purified on a Ni column; also called human Her3 protein

human Her2-His [2] = target: T5, human Her2-His (human, UniProt P04626 23-652); experiment: ELISA, coated human Her2-His
T5 construct: Bought protein

human Her3-his [3] = target: T4, human Her3-his; experiment: BLI (Fortibio), antibody on ProteinA sensor, human Her3-His in solution, 1:1 model
monkey Her3-his = target: T1, monkey Her3-his; experiment: ELISA, coated monkey Her3-his, anti-human Fc-HRP
human EGFR-His [4] = target: T6, human EGFR-His (human, UniProt P00533 25-645); experiment: ELISA, coated human EGFR-His
T6 construct: Bought protein

human Her2-His [5] = target: T5, human Her2-His; experiment: ELISA, coated Her2-his, antibody 1000 ng/mL
human Her4-His [6] = target: T2, human Her4-His; experiment: ELISA, coated Her4-his, antibody 200 ng/mL
[7] = target: T7, human Her3 on tumor cells (human, UniProt P21860 20-1342); experiment: cell-based or functional assay
human EGFR-His [8] = target: T6, human EGFR-His; experiment: ELISA, coated EGFR-his, antibody 40 ng/mL
human Her3-his [9] = target: T4, human Her3-his; experiment: ELISA, coated Her3-his, antibody 1000 ng/mL
human Her3-his [10] = target: T4, human Her3-his; experiment: ELISA, coated Her3-his, antibody 200 ng/mL
rat Her3-his = target: T3, rat Her3-his; experiment: ELISA, coated rat Her3-his, anti-human Fc-HRP
human Her4-His [11] = target: T2, human Her4-His; experiment: ELISA, coated Her4-his, antibody 40 ng/mL
human Her4-His [12] = target: T2, human Her4-His; experiment: ELISA, coated Her4-his, antibody 1000 ng/mL
human Her2-His [13] = target: T5, human Her2-His; experiment: ELISA, coated Her2-his, antibody 200 ng/mL
human Her2-His [14] = target: T5, human Her2-His; experiment: ELISA, coated Her2-his, antibody 40 ng/mL
[15] = target: T7, human Her3 on tumor cells; experiment: flow cytometry, A549-human Her3 tumor cells
human EGFR-His [16] = target: T6, human EGFR-His; experiment: ELISA, coated EGFR-his, antibody 1000 ng/mL
human EGFR-His [17] = target: T6, human EGFR-His; experiment: ELISA, coated EGFR-his, antibody 200 ng/mL
human Her3-his [18] = target: T4, human Her3-his; experiment: ELISA, coated Her3-his, antibody 40 ng/mL
human Her4-His [19] = target: T2, human Her4-His; experiment: ELISA, coated human Her4-His
[20] = target: T7, human Her3 on tumor cells; experiment: flow cytometry, T47D tumor cells

Binder	EC50 (human Her3-his [1]) [nM]	binding result (human Her2-His [2])	Kd (human Her3-his [3]) [nM]	koff (human Her3-his [3]) [s⁻¹]	kon (human Her3-his [3]) [M⁻¹ s⁻¹]	EC50 (monkey Her3-his) [nM]	binding result (human EGFR-His [4])	OD450 (human Her2-His [5])	OD450 (human Her4-His [6])	OD450 (human EGFR-His [8])	OD450 (human Her3-his [9])	OD450 (human Her3-his [10])	OD450 (human Her4-His [11])	OD450 (human Her4-His [12])	OD450 (human Her2-His [13])	OD450 (human Her2-His [14])	EC50 [15] [nM]	Maximum MFI [15] [MFI]	OD450 (human EGFR-His [16])	OD450 (human EGFR-His [17])	also measured
antibody 202-3-1 (antibody, human IgG1, kappa, V domains shown) VH: QVQLQESGPGLVKPSETLSLTCTVSGGSISGYFWSWIRQSPGKGLEWIGYIHYSGRTNYNPSLKSRVTISVDTSKNQFSLKLSSVTAADTAVYYCARETGGSGHWYFDLWGRGNLVTVSS VL: not shown	0.0606	no binding (tested: 1 µg/mL, 200 ng/mL, and 40 ng/mL)	7.79	0.00142	182000	0.0396	no binding (tested: 1 µg/mL, 200 ng/mL, and 40 ng/mL)	0.048	0.051	0.055	0.333	0.344	0.049	0.05	0.049	0.052	2.04	55700	0.05	0.05	IC50 of inhibition of NRG1-induced AKT phosphorylation in MCF-7 cells (cell blotting, anti-Phospho Akt Ser473) [7]: 1.04 nM; EC50 (rat Her3-his): 0.154 nM; OD450 (human Her3-his [18]): 0.281; binding result (human Her4-His [19]): no binding (tested: 1 µg/mL, 200 ng/mL, and 40 ng/mL)
antibody 202-3-2 (antibody, human IgG1, kappa, V domains shown, IgG1/kappa) VH: QVQLQESGPGLVKPSETLSLTCTVSGGSISGYFWSWIRQSPGQGLEWIGYIHYSGRTNYNPSLKSRVTISVDTSKNQFSLQLSSVTAADTAVYYCARETGGSGHWYFDLWGRGNLVTVSS VL: DIQMTQSPSSLSASVGDRVTITCRASQSISSYLIWYQQKPGQAPRLLIYAASSLQSGVPSRFSGSGSGTDFTLTISSLQPEDFATYYCHQSYSTPWTFGQGTKVEIKR	0.0782	no binding (tested: 1 µg/mL, 200 ng/mL, and 40 ng/mL)	6.81	0.00124	182000	0.0439	no binding (tested: 1 µg/mL, 200 ng/mL, and 40 ng/mL)	0.05	0.051	0.051	0.427	0.407	0.051	0.05	0.051	0.05	2.59	54800	0.051	0.05	EC50 (rat Her3-his): 0.225 nM; OD450 (human Her3-his [18]): 0.306; binding result (human Her4-His [19]): no binding (tested: 1 µg/mL, 200 ng/mL, and 40 ng/mL)
antibody 202-2-1 (antibody, human IgG1, kappa, V domains shown, Fully human IgG1/kappa from a phage scFv library; expressed in HEK293F; also called Her3mAb) VH: EVQLVESGGGVVQPGRSLRLSCAASGFTFSTYGMHWVRQAPGKGLEWVAVIWYDVSHKYYADSVKGRFTISRDNSKNTLSLQMNSLRAEDTAVYYCARDWGDPDAFDIWGQGTMVTVSS VL: not shown	0.021	no binding (tested: 1 µg/mL, 200 ng/mL, and 40 ng/mL)	13.1	0.00218	167000	0.0159	no binding (tested: 1 µg/mL, 200 ng/mL, and 40 ng/mL)	0.049	0.051	0.051	0.61	0.695	0.05	0.051	0.05	0.049	1.15	63800	0.051	0.051	EC50 [20]: 0.08 nM; IC50 of inhibition of NRG1-induced AKT phosphorylation in MCF-7 cells (cell blotting, anti-Phospho Akt Ser473) [7]: 0.243 nM; OD450 (human Her3-his [18]): 0.573; binding result (human Her4-His [19]): no binding (tested: 1 µg/mL, 200 ng/mL, and 40 ng/mL)
